Results taken from paper PMC2582960, “A Structural Model of the Staphylococcus aureus ClfA–Fibrinogen Interaction Opens New Avenues for the Design of Anti-Staphylococcal Therapeutics” (PLoS Pathogens, 2008).
Read-outs that look alike come from different tables or passages of the source. Where no end group is shown, it is not given here.

How the values were obtained:
[1] = molecular target: GST-Fg γ^1–17 (residues 395–411 of the Fg γ-chain fused to a GST protein) (human) (UniProt P02679); assay: ELISA; human Fg or GST fusion protein coated (1 µg/well); His-tagged ClfA added in increasing concentrations in HBS (10 mM HEPES, 100 mM NaCl, 3 mM EDTA, pH 7.4), 25°C, 1 h; bound ClfA detected with anti-His antibodies; apparent Kd
[2] = molecular target: GST-Fg γ^1–17 (residues 395–411 of the Fg γ-chain fused to a GST protein) (human) (UniProt P02679); assay: as above; remark: listed apart in the source
[3] = molecular target: human fibrinogen (Fg), full length (human) (UniProt P02671); assay: as above
[4] = molecular target: ClfA_(229–545) (clumping factor A, N2N3 domains) (Staphylococcus aureus strain Newman) (UniProt Q53653); assay: ITC
ClfA229–545 [5] = molecular target: T1, ClfA229–545 (Staphylococcus aureus, UniProt Q53653); assay: Isothermal titration calorimetry of ClfA229–545 with soluble Fg peptides; set-up: a smaller ClfA construct (229–545) predicted to be composed only of the N2 N3 domains; His tag (pQE-30 vector) (N); made in house; host or cells: Escherichia coli XL-1 Blue; conditions: ITC, 30 µM ClfA in cell, 500–600 µM peptide in syringe, HBS pH 7.4, 30°C, single binding site model; read-out: Kd of peptide binding to ClfA229–545 in solution (ITC)
T1 sequence (Q53653 229-545): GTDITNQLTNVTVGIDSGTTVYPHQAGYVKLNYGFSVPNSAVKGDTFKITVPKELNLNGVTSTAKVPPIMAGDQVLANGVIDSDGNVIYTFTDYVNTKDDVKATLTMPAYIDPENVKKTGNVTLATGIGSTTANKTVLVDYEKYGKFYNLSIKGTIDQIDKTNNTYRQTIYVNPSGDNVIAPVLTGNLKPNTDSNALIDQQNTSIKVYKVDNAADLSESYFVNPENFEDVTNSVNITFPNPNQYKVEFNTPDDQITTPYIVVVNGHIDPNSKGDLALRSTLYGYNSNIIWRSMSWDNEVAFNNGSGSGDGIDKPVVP
Experimental: The interaction between ClfA proteins and soluble Fg peptides was analyzed by Isothermal titration calorimetry (ITC) using a VP-ITC microcalorimeter (MicroCal). The cell contained 30 µM ClfA and the syringe contained 500–600 µM peptide in HBS buffer (10 mM HEPES, 150 mM NaCl, pH 7.4). All samples were degassed for 5 min. The titration was performed at 30°C using a preliminary injection of 5 µl followed by 30 injections of 10 µl with an injection speed of 0.5 µl/sec. The stirring speed was 300 rpm. Data were fitted to a single binding site model and analyzed using Origin version 5 (MicroCal) software.

ClfA229–545 [6] = molecular target: T1, ClfA229–545; assay: Solid-phase inhibition assay: Fg γ peptides inhibit ClfA binding to immobilized GST-Fg γ^1–17; set-up: a smaller ClfA construct (229–545) predicted to be composed only of the N2 N3 domains; His tag (pQE-30 vector) (N); made in house; host or cells: Escherichia coli XL-1 Blue; conditions: read-out: inhibition of ClfA binding to immobilized GST-Fg γ^1–17
Experimental: To identify specific residues in Fg that are important for binding to ClfA229–545, a panel of peptides (Fig. 1A) based on the Fg γ-chain sequence 395–411 (referred to as γ^1–17) were synthesized in which each position was sequentially substituted with an alanine residue (alanines 11 and 14 were changed to serines). These peptides were tested as inhibitors in solid-phase binding assays, using a peptide concentration giving about 50% inhibition by the wild-type peptide.
(§1) ClfA229–545 (100 nM) was pre-incubated with wild-type Fg γ^1–17 peptide (WT γ^1–17) or the P1 (G1A) to P17 (V17A) mutant peptide (50 µM) for 1 hr.
Immulon 4HBX Microtiter plates (Thermo) were coated with human Fg (1 µg/well) in HBS (10 mM HEPES, 100 mM NaCl, 3 mM EDTA, pH 7.4) over-night at 4°C. The wells were washed with HBS containing 0.05% (w/v) Tween-20 (HBST) and blocked with 5% (w/v) BSA in HBS for 1 h at 25°C. […] After incubation, the plates were washed 3 times with HBST. Anti-His antibodies (GE Healthcare) were added (1∶3000 in HBS) and the plates were incubated at 25°C for 1 h. […] The wells were washed 3 times with HBST and AP-conjugated polyclonal antibodies were detected by addition of p-nitrophenyl phosphate (Sigma) in 1 M diethanolamine (0.5 mM MgCl2, pH 9.8) and incubated at 25°C for 30–60 min. The plates were read at 405 nm in a ELISA plate reader (Thermomax, Molecular Devices). […]

ClfA229–545 [7] = molecular target: T1, ClfA229–545; conditions: read-out: Kd of ClfA229–545 binding to immobilized GST fusion protein; solid-phase assay, 1 µg GST fusion per well, increasing rClfA229–545, anti-His detection (Fig. 1C)
Experimental: as §1
Immulon 4HBX Microtiter plates (Thermo) were coated with human Fg (1 µg/well) in HBS (10 mM HEPES, 100 mM NaCl, 3 mM EDTA, pH 7.4) over-night at 4°C. The wells were washed with HBS containing 0.05% (w/v) Tween-20 (HBST) and blocked with 5% (w/v) BSA in HBS for 1 h at 25°C. […] After incubation, the plates were washed 3 times with HBST. Anti-His antibodies (GE Healthcare) were added (1∶3000 in HBS) and the plates were incubated at 25°C for 1 h. The wells were subsequently washed 3 times with HBST and incubated with goat anti-mouse-AP secondary antibodies (diluted 1∶3000 in HBS; Bio-Rad) at 25°C for 1 h. The wells were washed 3 times with HBST and AP-conjugated polyclonal antibodies were detected by addition of p-nitrophenyl phosphate (Sigma) in 1 M diethanolamine (0.5 mM MgCl2, pH 9.8) and incubated at 25°C for 30–60 min. The plates were read at 405 nm in a ELISA plate reader (Thermomax, Molecular Devices). For the inhibition assays, recombinant ClfA229–545 was pre-incubated with Fg γ peptides in HBS for 1 h at 37°C.

[8] = molecular target: T2, ClfA_(229–545) (clumping factor A, N2N3 domains) (Staphylococcus aureus strain Newman, UniProt Q53653 229-545); assay: ITC
T2 chain: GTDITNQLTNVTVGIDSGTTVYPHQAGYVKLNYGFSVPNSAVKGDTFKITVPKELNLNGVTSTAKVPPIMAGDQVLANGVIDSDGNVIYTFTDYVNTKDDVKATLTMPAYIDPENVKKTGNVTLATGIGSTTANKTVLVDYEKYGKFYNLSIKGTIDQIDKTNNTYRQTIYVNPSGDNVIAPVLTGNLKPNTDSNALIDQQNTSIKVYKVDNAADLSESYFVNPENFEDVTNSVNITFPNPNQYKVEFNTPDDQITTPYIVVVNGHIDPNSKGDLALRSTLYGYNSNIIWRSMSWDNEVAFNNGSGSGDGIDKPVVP

human fibrinogen (Fg), full length (human), sequence (P02671 other isoform, or with tags, fused parts or gaps, chain 1 of 3): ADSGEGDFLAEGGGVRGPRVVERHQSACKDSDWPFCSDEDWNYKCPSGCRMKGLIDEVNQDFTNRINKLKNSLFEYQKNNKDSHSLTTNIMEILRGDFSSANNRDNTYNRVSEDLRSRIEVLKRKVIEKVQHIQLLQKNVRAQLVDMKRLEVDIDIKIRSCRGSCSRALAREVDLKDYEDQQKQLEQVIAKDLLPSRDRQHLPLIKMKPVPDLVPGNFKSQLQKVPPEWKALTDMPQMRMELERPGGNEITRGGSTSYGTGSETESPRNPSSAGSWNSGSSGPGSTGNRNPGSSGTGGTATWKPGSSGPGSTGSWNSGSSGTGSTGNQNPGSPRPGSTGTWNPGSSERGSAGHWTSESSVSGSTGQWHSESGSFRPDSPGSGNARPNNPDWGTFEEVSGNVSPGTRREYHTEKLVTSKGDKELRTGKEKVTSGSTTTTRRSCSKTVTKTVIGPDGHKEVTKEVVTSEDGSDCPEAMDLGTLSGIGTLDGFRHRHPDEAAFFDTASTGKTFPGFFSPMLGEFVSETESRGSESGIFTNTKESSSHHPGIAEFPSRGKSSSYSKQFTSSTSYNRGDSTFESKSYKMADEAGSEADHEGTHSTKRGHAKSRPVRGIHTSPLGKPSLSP
human fibrinogen (Fg), full length (human), sequence (P02675 31-491, chain 2 of 3, further chain): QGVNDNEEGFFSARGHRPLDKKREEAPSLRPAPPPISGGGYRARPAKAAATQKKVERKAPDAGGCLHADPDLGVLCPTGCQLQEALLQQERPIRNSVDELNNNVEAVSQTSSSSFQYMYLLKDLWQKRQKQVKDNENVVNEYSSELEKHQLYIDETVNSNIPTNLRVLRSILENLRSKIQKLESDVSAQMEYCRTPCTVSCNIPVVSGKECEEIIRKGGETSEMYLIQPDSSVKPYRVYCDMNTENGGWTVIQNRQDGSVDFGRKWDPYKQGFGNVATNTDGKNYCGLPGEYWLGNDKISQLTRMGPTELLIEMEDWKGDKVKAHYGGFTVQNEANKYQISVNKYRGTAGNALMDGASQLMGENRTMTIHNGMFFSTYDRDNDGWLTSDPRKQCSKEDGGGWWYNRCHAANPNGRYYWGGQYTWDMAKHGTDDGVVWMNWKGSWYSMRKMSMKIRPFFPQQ
human fibrinogen (Fg), full length (human), sequence (P02679 other isoform, or with tags, fused parts or gaps, chain 3 of 3, further chain): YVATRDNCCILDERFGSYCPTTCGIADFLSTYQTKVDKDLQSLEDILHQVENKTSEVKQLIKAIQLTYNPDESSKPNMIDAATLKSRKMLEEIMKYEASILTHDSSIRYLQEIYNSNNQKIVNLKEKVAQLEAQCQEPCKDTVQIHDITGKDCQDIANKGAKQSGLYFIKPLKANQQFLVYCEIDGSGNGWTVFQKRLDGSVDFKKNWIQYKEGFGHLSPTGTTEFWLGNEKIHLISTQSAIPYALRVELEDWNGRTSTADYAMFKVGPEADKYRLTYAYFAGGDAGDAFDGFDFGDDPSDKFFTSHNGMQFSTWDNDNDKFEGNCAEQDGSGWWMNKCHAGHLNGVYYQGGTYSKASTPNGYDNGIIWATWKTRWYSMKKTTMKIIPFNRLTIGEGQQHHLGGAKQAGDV

With “ClfA_(229–545) (clumping factor A, N2N3 domains) (from UniProt Q53653 229-545) (domain or fragment)” the Kd [1] was 0.657 µM and the Kd [2] was 0.222 µM.

“ClfA_((229–545)D327C/K541C), stable closed conformation (from UniProt Q53653 229-545) (domain or fragment)” showed a Kd [2] of 0.02 µM and a Kd [3] of 0.034 µM.

“Fg γ^1–17 peptide, wild type (Fg γ-chain 395–411) (from UniProt P02679-2 421-437)” was tested, and the Kd [4] was 5.8 µM.

GEGQQHHLGGAKQAGAV [γ^1–17 D16A] showed a Kd (ClfA229–545 [5]) of 3 µM.

Molecule GEGQQHHLGGAKQAGDV [WT γ^1–17] has an inhibition at 50 µM (ClfA229–545 [6]) of about 50% and a Kd (ClfA229–545 [5]) of 5.8 µM.

“GST-Fg γ^1–17: recombinant form of residues 395–411 of the Fg γ-chain fused to a GST protein (GEGQQHHLGGAKQAGDV; also: fused to GST, end not given here)” was tested, and the Kd (ClfA229–545 [7]) was 0.657 µM.

B1: Fg γ^1–17 _(D16A) peptide truncated by 6 amino acids at the N-terminus (peptide)
chain: HLGGAKQAGAV
B1 was tested, and the Kd [8] was 22.5 µM.

B2: Fg γ^1–17 _(D16A) peptide truncated by 2 amino acids at the N-terminus (peptide)
chain: GQQHHLGGAKQAGAV
B2 showed a Kd [8] of 8.8 µM.

B3: Fg γ^5–17 _(D16A) peptide (13 residues) (peptide)
chain: QHHLGGAKQAGAV
For B3, the Kd [8] was 10.5 µM.
